Test results reported in EP1947117A2.

Columns and labels:
[1] = target: human TSH receptor on CHO cells (CHO-hTSHR clone JP09) (human) (UniProt P16473); assay: cell-based or functional assay
[2] = target: rat TSH receptor on FRTL-5 cells (rat) (UniProt P21463); assay: cell-based or functional assay
[3] = target: porcine TSH receptor (solubilized porcine thyroid membranes) (porcine) (UniProt Q8SPP9); assay: competitive displacement of 125I-bTSH from solubilized porcine thyroid membranes
[4] = target: hCG receptor on MA-10 cells (transformed murine Leydig cells) (murine) (UniProt P30730); assay: cell-based or functional assay
[5] = target: porcine TSH receptor (solubilized porcine thyroid membranes) (porcine) (UniProt Q8SPP9); assay: competitive binding assay to porcine thyroid membranes
[6] = target: hCG receptor on MA-10 cells (transformed murine Leydig cells) (murine) (UniProt P30730); assay: 125I-hCG receptor binding assay on MA-10 cells (Fig. 3b)

hCG receptor on MA-10 cells (transformed murine Leydig cells) (murine), sequence (P30730 27-700): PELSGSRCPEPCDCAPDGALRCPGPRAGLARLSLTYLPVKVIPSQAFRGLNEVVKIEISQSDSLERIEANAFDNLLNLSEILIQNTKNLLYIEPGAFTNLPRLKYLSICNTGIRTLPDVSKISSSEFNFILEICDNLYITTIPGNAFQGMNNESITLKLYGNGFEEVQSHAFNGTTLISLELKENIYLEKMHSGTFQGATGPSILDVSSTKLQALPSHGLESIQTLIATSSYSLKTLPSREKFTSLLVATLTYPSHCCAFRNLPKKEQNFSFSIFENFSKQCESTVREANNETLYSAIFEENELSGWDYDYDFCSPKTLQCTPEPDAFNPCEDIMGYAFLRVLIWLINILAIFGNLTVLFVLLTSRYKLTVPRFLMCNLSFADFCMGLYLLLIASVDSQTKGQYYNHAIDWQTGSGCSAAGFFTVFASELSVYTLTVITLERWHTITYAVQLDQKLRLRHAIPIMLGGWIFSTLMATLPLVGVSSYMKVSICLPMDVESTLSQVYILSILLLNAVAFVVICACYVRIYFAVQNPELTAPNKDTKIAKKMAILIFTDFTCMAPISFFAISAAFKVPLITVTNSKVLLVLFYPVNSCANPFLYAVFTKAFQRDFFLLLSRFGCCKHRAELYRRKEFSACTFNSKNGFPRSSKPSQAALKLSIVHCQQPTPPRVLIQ
porcine TSH receptor (solubilized porcine thyroid membranes) (porcine), sequence (Q8SPP9 22-764): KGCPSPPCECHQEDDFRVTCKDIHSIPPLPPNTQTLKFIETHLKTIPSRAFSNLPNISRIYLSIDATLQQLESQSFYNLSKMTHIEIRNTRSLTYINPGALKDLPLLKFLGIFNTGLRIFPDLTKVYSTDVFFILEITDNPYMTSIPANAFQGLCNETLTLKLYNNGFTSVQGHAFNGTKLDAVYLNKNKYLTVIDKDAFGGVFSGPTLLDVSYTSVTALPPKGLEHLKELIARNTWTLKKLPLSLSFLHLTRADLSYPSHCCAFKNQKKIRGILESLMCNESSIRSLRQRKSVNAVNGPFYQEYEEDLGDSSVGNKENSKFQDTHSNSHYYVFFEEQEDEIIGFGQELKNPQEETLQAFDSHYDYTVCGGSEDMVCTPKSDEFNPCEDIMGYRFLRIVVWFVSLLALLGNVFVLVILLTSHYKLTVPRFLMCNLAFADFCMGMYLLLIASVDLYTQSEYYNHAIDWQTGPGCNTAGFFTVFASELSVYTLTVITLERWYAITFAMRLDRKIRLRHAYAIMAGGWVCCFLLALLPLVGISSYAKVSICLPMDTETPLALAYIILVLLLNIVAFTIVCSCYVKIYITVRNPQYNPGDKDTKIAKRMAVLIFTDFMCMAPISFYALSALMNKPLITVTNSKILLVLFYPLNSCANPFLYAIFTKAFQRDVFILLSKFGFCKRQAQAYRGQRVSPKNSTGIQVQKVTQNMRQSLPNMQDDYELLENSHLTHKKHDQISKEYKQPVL
rat TSH receptor on FRTL-5 cells (rat), sequence (P21463 22-764): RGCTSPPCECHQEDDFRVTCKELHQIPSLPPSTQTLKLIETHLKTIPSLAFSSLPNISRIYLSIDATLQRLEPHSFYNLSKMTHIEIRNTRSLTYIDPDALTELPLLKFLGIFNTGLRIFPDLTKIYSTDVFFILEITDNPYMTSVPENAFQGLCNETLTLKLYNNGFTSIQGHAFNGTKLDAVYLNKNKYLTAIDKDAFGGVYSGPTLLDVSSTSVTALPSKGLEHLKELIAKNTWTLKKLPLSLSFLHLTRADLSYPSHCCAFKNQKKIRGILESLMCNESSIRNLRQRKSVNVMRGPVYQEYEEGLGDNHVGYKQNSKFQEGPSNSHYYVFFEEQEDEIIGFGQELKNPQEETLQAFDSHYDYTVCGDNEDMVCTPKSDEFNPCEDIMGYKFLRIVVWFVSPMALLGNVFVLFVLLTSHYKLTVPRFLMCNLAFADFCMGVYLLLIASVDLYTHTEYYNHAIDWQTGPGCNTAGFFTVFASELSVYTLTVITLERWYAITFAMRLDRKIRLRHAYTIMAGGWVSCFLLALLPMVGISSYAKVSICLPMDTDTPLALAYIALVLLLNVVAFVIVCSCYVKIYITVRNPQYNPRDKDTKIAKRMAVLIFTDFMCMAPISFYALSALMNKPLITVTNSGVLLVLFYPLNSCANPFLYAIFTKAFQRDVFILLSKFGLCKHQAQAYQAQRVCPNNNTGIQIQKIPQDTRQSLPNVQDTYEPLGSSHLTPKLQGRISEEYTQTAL

Row | cAMP stimulation in JP09 cells, EC50 [1] | cAMP stimulation in JP09 cells, relative potency (WT=1) [1] | EC25 of inhibition of 125I-bTSH binding [3] | Progesterone synthesis in MA 10 cells, EC50 [4] | Progesterone synthesis in MA 10 cells, Max [4] | Substance | other results
1 | 0.19 ng/mL | 35.3 fold (WT=1) | 1.8 ng/mL |  |  | hTSH mutant α-Q13K+P16K+Q20K / TSHβ-L69R (from UniProt P01215 25-116; P01222 21-132) (ligand) | half-maximal stimulation of 3H-thymidine incorporation in FRTL-5 cells, fold lower concentration than WT-hTSH [2]: 27 fold
2 | 1.89 ng/mL | 3.5 fold (WT=1) | 22.5 ng/mL |  |  | hTSH mutant α-Q13K / WT-hTSHβ (from UniProt P01215 25-116; P01222 21-132) (ligand) | 
3 | 0.28 ng/mL | 23.9 fold (WT=1) | 2.3 ng/mL |  |  | hTSH mutant α-Q13K+P16K+Q20K / WT-hTSHβ (from UniProt P01215 25-116; P01222 21-132) (ligand) | half-maximal stimulation of 3H-thymidine incorporation in FRTL-5 cells, fold lower concentration than WT-hTSH [2]: 18 fold
4 |  |  |  | 2.46 ng/mL | 115% | hCG mutant α-Q13K / WT-hCGβ (from UniProt P01215 25-116; P0DN86 21-165) (ligand) | 
5 | 0.17 ng/mL | 39.4 fold (WT=1) | 2.1 ng/mL |  |  | hTSH mutant α-Q13K+P16K+Q20K+E14K / WT-hTSHβ (from UniProt P01215 25-116; P01222 21-132) (ligand) | efficacy (maximal response) of cAMP stimulation, fold over WT-hTSH [1]: > 1.5 fold
6 | 0.07 ng/mL | 95.7 fold (WT=1) | 1.3 ng/mL |  |  | hTSH mutant α-Q13K+P16K+Q20K+E14K / TSHβ-L69R (from UniProt P01215 25-116; P01222 21-132) (ligand) | efficacy (maximal response) of cAMP stimulation, fold over WT-hTSH [1]: > 1.5 fold
7 | 1.05 ng/mL | 6.4 fold (WT=1) | 189 ng/mL |  |  | hTSH mutant α-P16K / WT-hTSHβ (from UniProt P01215 25-116; P01222 21-132) (ligand) | fold greater affinity than WT [5]: 5 fold
8 |  |  |  | 1.7 ng/mL | 212% | hCG mutant α-P16K+Q20K / WT-hCGβ (from UniProt P01215 25-116; P0DN86 21-165) (ligand) | 
9 | 3.52 ng/mL | 1.9 fold (WT=1) |  |  |  | hTSH mutant α-P16K+F17T / WT-hTSHβ (from UniProt P01215 25-116; P01222 21-132) (ligand) | 
10 |  |  |  |  |  | hTSH mutant WT α / hTSHβ-I58R (from UniProt P01215 25-116; P01222 21-132) (ligand) | potency, fold increase over hTSH [1]: 2 to 4 fold; potency, fold increase over hTSH [2]: 2 to 4 fold
11 |  |  | 81.3 ng/mL |  |  | WT-hTSH (wild-type recombinant human thyroid stimulating hormone) (from UniProt P01215 25-116; P01222 21-132) (ligand) | 
12 |  |  |  |  |  | hTSH mutant WT α / hTSHβ-E63R (from UniProt P01215 25-116; P01222 21-132) (ligand) | potency, fold increase over hTSH [1]: 2 to 4 fold; potency, fold increase over hTSH [2]: 2 to 4 fold
13 |  |  |  | 2.96 ng/mL | 134% | hCG mutant α-Q20K / WT-hCGβ (from UniProt P01215 25-116; P0DN86 21-165) (ligand) | 
14 | 1.16 ng/mL | 5.8 fold (WT=1) | 21.3 ng/mL |  |  | hTSH mutant α-Q20K / WT-hTSHβ (from UniProt P01215 25-116; P01222 21-132) (ligand) | 
15 | 5.54 ng/mL | 1.2 fold (WT=1) | 77.5 ng/mL |  |  | hTSH mutant α-Q50P / WT-hTSHβ (from UniProt P01215 25-116; P01222 21-132) (ligand) | 
16 |  |  |  | 1.58 ng/mL | 216% | hCG mutant α-Q13K+P16K+Q20K / WT-hCGβ (from UniProt P01215 25-116; P0DN86 21-165) (ligand) | 
17 |  |  |  | 2.79 ng/mL | 156% | hCG mutant α-T11K / WT-hCGβ (from UniProt P01215 25-116; P0DN86 21-165) (ligand) | 
18 |  |  |  | 1.65 ng/mL | 205% | hCG mutant α-Q13K+P16K+Q20K+E14K / WT-hCGβ (from UniProt P01215 25-116; P0DN86 21-165) (ligand) | 
19 |  |  |  |  |  | hTSH mutant WT α / hTSHβ-I58R+E63R+L69R (from UniProt P01215 25-116; P01222 21-132) (ligand) | efficacy of cAMP stimulation in CHO-hTSH cells (Fig. 2g), fold increase [1]: 1.7 fold; potency of cAMP stimulation in CHO-hTSH cells (Fig. 2g), fold increase [1]: 50 fold
20 | 0.37 ng/mL | 11.8 fold (WT=1) | 6.4 ng/mL |  |  | hTSH mutant α-P16K+Q20K / WT-hTSHβ (from UniProt P01215 25-116; P01222 21-132) (ligand) | 
21 |  |  |  | 3.9 ng/mL | 137% | hCG mutant α-Q50P / WT-hCGβ (from UniProt P01215 25-116; P0DN86 21-165) (ligand) | 
22 |  |  |  | 4.6 ng/mL | 145% | hCG mutant α-R67K / WT-hCGβ (from UniProt P01215 25-116; P0DN86 21-165) (ligand) | 
23 | 7.36 ng/mL | 0.9 fold (WT=1) | 62.5 ng/mL |  |  | hTSH mutant α-R67K / WT-hTSHβ (from UniProt P01215 25-116; P01222 21-132) (ligand) | 
24 | 4.47 ng/mL | 1.5 fold (WT=1) | 68.3 ng/mL |  |  | hTSH mutant α-T11K / WT-hTSHβ (from UniProt P01215 25-116; P01222 21-132) (ligand) | 
25 |  |  |  | 2.05 ng/mL | 161% | hCG mutant α-P16K / WT-hCGβ (from UniProt P01215 25-116; P0DN86 21-165) (ligand) | stimulation of progesterone production in MA-10 cells, fold more active than WT-hCG [4]: 4 fold; fold more active than WT-hCG in receptor binding activity [6]: 4 fold
26 | 2.75 ng/mL | 2.4 fold (WT=1) |  |  |  | hTSH mutant WT α / TSHβ-L69R (from UniProt P01215 25-116; P01222 21-132) (ligand) | 
27 |  |  |  |  |  | hTSH mutant WT α / hTSHβ-I58R+E63R (from UniProt P01215 25-116; P01222 21-132) (ligand) | efficacy of cAMP stimulation in CHO-hTSH cells (Fig. 2g), fold increase [1]: 1.5 fold; potency of cAMP stimulation in CHO-hTSH cells (Fig. 2g), fold over wild type hTSH [1]: 15 fold
